Target: T1, human C-C motif chemokine receptor-like 2 (CCRL2) isoform b, on HEK-huCCRL2 cells (human, UniProt O00421 1-344)
T1 chain: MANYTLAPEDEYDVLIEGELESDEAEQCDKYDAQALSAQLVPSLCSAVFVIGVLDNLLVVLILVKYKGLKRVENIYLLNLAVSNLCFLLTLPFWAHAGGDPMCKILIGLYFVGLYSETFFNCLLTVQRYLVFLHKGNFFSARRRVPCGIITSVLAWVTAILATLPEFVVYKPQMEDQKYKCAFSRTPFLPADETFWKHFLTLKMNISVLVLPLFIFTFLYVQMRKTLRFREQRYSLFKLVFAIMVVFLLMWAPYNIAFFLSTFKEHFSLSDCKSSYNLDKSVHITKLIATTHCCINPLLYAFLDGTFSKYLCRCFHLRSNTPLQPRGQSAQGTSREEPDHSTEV
Assay: SPR

Kd: 7.48 nM
B1: recombinant active human chemerin (residues 21-157), unlabeled (ligand)
chain: ELTEAQRRGLQVALEEFHKHPPVQWAFQETSVESAVDTPFPAGIFVRLEFKLQQTSCRKRDWKKPECKVRPNGRKRKCLACIKLGSEDKVLGRLVHCPIETQVLREAEEHQETQCLRVQRAGEDPHSFYFPGQFAFS

Reference: publication PMC9858354 (2023)
